Several values for one entry are separate records, joined by “and”; a condition that tells them apart may be missing. Equal entries are not always repeated.
Key:
2.2.15 cells = assay: Arginase toxicity to cells (CPE method, Reed-Muench); type: cell-based, human; settings: 8 days drug addition, listed as pegylated recombinant arginase
Description: Divide experiment into control group and test groups with different drug concentration. Digest cells, dilute to 200,000 cells/ml, transfer to culture plate, 100 μl per well for 96-well plate, incubate for 24 hours under 5% CO2 at 37° C., ready for experiment when cells grown into monolayer. […] Observe cytopathological changes, 8 days or 4 days under microscope, totally destroyed is 4; 75% destroyed is 3; 50% destroyed is 2, 25% destroyed is 1; no changes is 0. Calculate TC50 and TC0 according to Reed-Muench Method:
A=log>50% drug concentration; B=log<50% drug concentration; C=log times of dilution
Starting from 40 IU/ml and subsequently 20, 10, 5, 2.5 IU/ml, change drug solution every 4 days until 8 days, observe cytopathological changes under microscope, and check for CPE with microscope.

[1] = system: HBV-DNA in supernatant of 2.2.15 cell culture; assay: HBV-DNA dot blot in supernatant of 2.2.15 cell culture; type: cell-based, hepatitis B virus
Description: Extraction of HBV-DNA from 2.2.15 cells supernatant: Grow 200000 cells/ml 2.2.15 cell on 24-well plate, 1 ml per well, add drugs after 24 hours incubation, change drug solution every 4 days with the same concentration, collect supernatant from cell culture after 8 days of incubation counted from the day drugs added into the culture, precipitate with polyethylene glycol, digest with proteinase K, extract with phenol:chloroform:isopentanol, nucleic acid precipitation by absolute ethanol and so on procedures, vacuum dry, re-dissolve in TE buffer as sample.
Dot blot: place dots: take 20 μl sample (contains 25 μg DNA), denature, neutralize, serial dilute 20×SSC buffer to 1:8 dilution on nitrocellulose membrane, oven dry, pre-hybridize, hybridize, wash membrane, radioactive self exposure and so on procedures. Develop X ray film with conventional method. Scan developed film with scanner, measure density with gel-pro software, calculate suppression rate and IC50.

HBsAg = assay: Suppression of HBsAg secretion in 2.2.15 cells (radioimmunoassay, cpm); type: cell-based, hepatitis B virus; settings: for HBsAg IC50: first batch
Description: Grow 200000 cells/ml 2.2.15 cell on 24-well plate, 1 ml per well, incubate for 24 hours under 5% CO2 at 37° C. […] 4 wells per concentration, incubate under 5% CO2 at 37° C., change drug solution every 4 days with the same concentration, retrieve culture medium at day 8, preserve at −20° C. Repeat experiment for 2 batches, test for HBsAg and HBeAg separately. Check cpm value for each wells using γ-counter.
Calculating drug effectiveness: calculate the mean and standard deviation of cpm from the cell control group and groups with different drug concentration, P/N value and percent suppression, IC50 and SI. • (1)
[formula] • (2) Calculate IC50 for drug suppression of antigen:
[formula] • (4) Calculate the cpm differences between HBsAg and HBeAg in different dilutions and control groups by t-test.

B1: Arginase: Pegylated recombinant human arginase (BCT-100); human arginase I with N-terminal six-histidine tag, SEQ ID NO: 3 (protein, listed as Homo sapiens)
chain: MHHHHHHMSAKSRTIGIIGAPFSKGQPRGGVEEGPTVLRKAGLLEKLKEQECDVKDYGDLPFADIPNDSPFQIVKNPRSVGKASEQLAGKVAQVKKNGRISLVLGGDHSLAIGSISGHARVHPDLGVIWVDAHTDINTPLTTTSGNLHGQPVSFLLKELKGKIPDVPGFSWVTPCISAKDIVYIGLRDVDPGEHYILKTLGIKYFSMTEVDRLGIGKVMEETLSYLLGRKKRPIHLSFDVDGLDPSFTPATGTPVVGGLTYREGLYITEEIYKTGLLSGLDIMEVNPSLGKTPEEVTRTVNTAVAITLACFGLAREGNHKPIDYLNPPK
modifications: PEGylated
TC0 (2.2.15 cells): 20±0 IU/ml | % suppression of HBV-DNA in cell culture supernatant ([1]; Arginase 1.25 μg/ml (unit as headed), batch 2, day 8): 15.7769% | HBV-DNA in cell culture supernatant, Original Solution (IOD) ([1]; Arginase 1.25 μg/ml (unit as headed), batch 2, day 8, control 4651.67): 3917.78 IOD | % suppression of HBV-DNA in cell culture supernatant ([1]; Arginase 2.5 μg/ml (unit as headed), batch 1, day 8): 24.9152% | HBV-DNA in cell culture supernatant, Original Solution (IOD) ([1]; Arginase 2.5 μg/ml (unit as headed), batch 1, day 8, control 2375.1): 1783.34 IOD | % suppression of HBV-DNA in cell culture supernatant ([1]; Arginase 2.5 μg/ml (unit as headed), batch 2, day 8): 11.466% | HBV-DNA in cell culture supernatant, Original Solution (IOD) ([1]; Arginase 2.5 μg/ml (unit as headed), batch 2, day 8, control 4651.67): 4118.31 IOD | % suppression of HBV-DNA in cell culture supernatant ([1]; Arginase 5 μg/ml (unit as headed), batch 1, day 8): 11.9877% | HBV-DNA in cell culture supernatant, Original Solution (IOD) ([1]; Arginase 5 μg/ml (unit as headed), batch 1, day 8, control 2375.1): 2090.38 IOD | % suppression of HBV-DNA in cell culture supernatant ([1]; Arginase 5 μg/ml (unit as headed), batch 2, day 8): 43.8243% | HBV-DNA in cell culture supernatant, Original Solution (IOD) ([1]; Arginase 5 μg/ml (unit as headed), batch 2, day 8, control 4651.67): 2613.11 IOD | % suppression of HBV-DNA in cell culture supernatant ([1]; Arginase 10 μg/ml (unit as headed), batch 1, day 8): 29.2409% | HBV-DNA in cell culture supernatant, Original Solution (IOD) ([1]; Arginase 10 μg/ml (unit as headed), batch 1, day 8, control 2375.1): 1680.6 IOD | % suppression of HBV-DNA in cell culture supernatant ([1]; Arginase 10 μg/ml (unit as headed), batch 2, day 8): 38.0549% | HBV-DNA in cell culture supernatant, Original Solution (IOD) ([1]; Arginase 10 μg/ml (unit as headed), batch 2, day 8, control 4651.67): 2881.48 IOD | % suppression of HBV-DNA in cell culture supernatant ([1]; Arginase 20 μg/ml (unit as headed), batch 1, day 8): 30.8113% | HBV-DNA in cell culture supernatant, Original Solution (IOD) ([1]; Arginase 20 μg/ml (unit as headed), batch 1, day 8, control 2375.1): 1643.3 IOD | % suppression of HBV-DNA in cell culture supernatant ([1]; Arginase 20 μg/ml (unit as headed), batch 2, day 8): 47.7577% | HBV-DNA in cell culture supernatant, Original Solution (IOD) ([1]; Arginase 20 μg/ml (unit as headed), batch 2, day 8, control 4651.67): 2430.14 IOD | IC50, HBV-DNA dot blot in supernatant ([1]; batch 1, 8 days of incubation): 16.04 IU/ml | IC50, HBV-DNA dot blot in supernatant ([1]; batch 2, 8 days of incubation): 10.31 IU/ml | IC50, HBV-DNA dot blot in supernatant ([1]; two batches average, 8 days of incubation): 13.18 IU/ml | IC50, HBV-DNA dot blot in supernatant ([1]; two batches average, 8 days of incubation, listed as arginase): 13.18±4.05 IU/ml | IC50, HBV-DNA dot blot in supernatant ([1]; two batches average, 8 days of incubation, listed as pegylated recombinant arginase): 13.18±0.45 IU/ml | Suppression of HBsAg secretion (result in words) (HBsAg; 2.2.15 cells, 8 days incubation, TC0 concentration and dilutions): significantly inhibits | HBsAg (CPM) % suppression (HBsAg; Arginase 1.25 IU/ml, batch 2, day 8): 4.463% | HBsAg (CPM) % suppression (HBsAg; Arginase 1.25 IU/ml, two batches average line, day 8): 4.46% | HBsAg (CPM) % suppression (HBsAg; Arginase 2.5 IU/ml, batch 1, day 8): 37.18% and 37.1787% | HBsAg (CPM) % suppression (HBsAg; Arginase 2.5 IU/ml, batch 2, day 8): 2.6073% | HBsAg (CPM) % suppression (HBsAg; Arginase 2.5 IU/ml, two batches average, day 8): 19.92 ± 24.40% | HBsAg (CPM) % suppression (HBsAg; Arginase 5 IU/ml, batch 1, day 8): 42.29% and 42.2871% | HBsAg (CPM) % suppression (HBsAg; Arginase 5 IU/ml, batch 2, day 8): 1.4739% | HBsAg (CPM) % suppression (HBsAg; Arginase 5 IU/ml, two batches average, day 8): 21.88 ± 28.86% | HBsAg (CPM) % suppression (HBsAg; Arginase 10 IU/ml, batch 1, day 8): 47.97% and 47.9651% | HBsAg (CPM) % suppression (HBsAg; Arginase 10 IU/ml, batch 2, day 8): 6.0761% | HBsAg (CPM) % suppression (HBsAg; Arginase 10 IU/ml, two batches average, day 8): 27.02 ± 29.62% | HBsAg (CPM) % suppression (HBsAg; Arginase 20 IU/ml, batch 1, day 8): 49.16% and 49.1558% | HBsAg (CPM) % suppression (HBsAg; Arginase 20 IU/ml, two batches average, day 8): 29.81±27.35% | HBsAg (CPM) % suppression (HBsAg; Arginase 20 IU/ml, two batches average, day 8, listed as pegylated recombinant arginase): 29.81±27.35% | HBsAg IC50 (HBsAg; day 8): (1)10.72 IU/ml | HBsAg IC50 (HBsAg; day 8, listed as pegylated recombinant arginase): 10.72 IU/ml
